Residue numbers refer to the chain shown, from its start.
B1: PAI-1WT (wild-type plasminogen activator inhibitor 1, recombinant) (natural protein)
chain: VHHPPSYVAHLASDFGVRVFQQVAQASKDRNVVFSPYGVASVLAMLQLTTGGETQQQIQAAMGFKIDDKGMAPALRHLYKELMGPWNKDEISTTDAIFVQRDLKLVQGFMPHFFRLFRSTVKQVDFSEVERARFIINDWVKTHTKGMISHLLGTGAVDQLTRLVLVNALYFNGQWKTPFPDSSTHRRLFHKSDGSTVSVPMMAQTNKFNYTEFTTPDGHYYDILELPYHGDTLSMFIAAPYEKEVPLSALTNILSAQLISHWKGNMTRLPRLLVLPKFSLETEVDLRKPLENLGMTDMFRQFQADFTSLSDQEPLHVALALQKVKIEVNESGTVASSSTAVIVSARMAPEEIIIDRPFLFVVRHNPTGTVLFMGQVMEP
B2: PAI-1AK (PAI-1 Arg101Ala, Gln123Lys) (natural protein)
chain: B1 chain with R101A, Q123K

Columns and labels:
[1] = biological target: PAI-1WT (wild-type plasminogen activator inhibitor 1, recombinant) (UniProt P05121); test: SPR; competition: 250 nM PAI-1WT preincubated with increasing concentrations of SMB, then flowed over immobilised full-length SorLA; HBS-P buffer with 1.0 mM CaCl2, pH 7.4, 25°C
[2] = biological target: T1, Soluble full-length SorLA (sortilin-related receptor 1) (UniProt Q92673 82-2137); test: SPR
[3] = biological target: T2, SorLA VPS10 domain (vacuolar protein sorting 10 domain); test: SPR
T2 chain: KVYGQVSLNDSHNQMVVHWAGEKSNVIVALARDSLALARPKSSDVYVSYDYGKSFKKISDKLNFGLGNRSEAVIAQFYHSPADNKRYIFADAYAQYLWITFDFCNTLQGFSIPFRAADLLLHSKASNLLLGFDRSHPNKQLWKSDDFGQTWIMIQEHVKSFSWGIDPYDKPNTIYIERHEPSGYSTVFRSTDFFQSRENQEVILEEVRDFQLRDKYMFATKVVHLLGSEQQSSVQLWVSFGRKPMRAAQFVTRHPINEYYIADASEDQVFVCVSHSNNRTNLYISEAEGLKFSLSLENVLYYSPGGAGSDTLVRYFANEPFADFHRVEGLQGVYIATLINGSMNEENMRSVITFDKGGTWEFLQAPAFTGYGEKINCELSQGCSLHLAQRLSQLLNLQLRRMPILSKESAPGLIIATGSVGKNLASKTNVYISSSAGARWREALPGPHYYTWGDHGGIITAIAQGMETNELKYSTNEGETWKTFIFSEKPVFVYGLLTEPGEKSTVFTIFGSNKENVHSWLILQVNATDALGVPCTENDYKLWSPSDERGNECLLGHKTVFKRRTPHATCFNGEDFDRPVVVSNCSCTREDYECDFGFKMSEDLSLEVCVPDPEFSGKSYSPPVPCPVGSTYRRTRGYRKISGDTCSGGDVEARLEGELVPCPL

[4] = biological target: T1, Soluble full-length SorLA …; test: SPR; SorLA or its VPS10 domain immobilised on a CM5 chip (5,000 and 2,500 RU); PAI-1 flowed over; HBS-P buffer with 1.0 mM CaCl2, pH 7.4, 25°C, 20 uL/min; equilibrium analysis (Req/Rmax), single binding site

Molecule	IC50 [1] [nM]	Kd [2] [nM]	Kd [3] [nM]	Kd [4] [nM]
Somatomedin B (SMB) domain of vitronectin (VTN) (from UniProt P04004 20-63) (domain or fragment)	464	–	–	–
B1	–	102	1590	126
B2	–	491	–	540
